Biological target: the molecule itself
Experiment: SEC + other: diffusion NMR

B1: full-length, wild-type phosphate starvation response like protein-4 (PHL4) (natural protein, Arabidopsis, UniProt Q8GXC2 1-397, looked up)
chain: MIPNDDDDANSMKNYPLNDDDANSMKNYPLNDDDANSMENYPLRSIPTELSHTCSLIPPSLPNPSEAAADMSFNSELNQIMARPCDMLPANGGAVGHNPFLEPGFNCPETTDWIPSPLPHIYFPSGSPNLIMEDGVIDEIHKQSDLPLWYDDLITTDEDPLMSSILGDLLLDTNFNSASKVQQPSMQSQIQQPQAVLQQPSSCVELRPLDRTVSSNSNNNSNSNNAAAAAKGRMRWTPELHEVFVDAVNQLGGSNEATPKGVLKHMKVEGLTIFHVKSHLQKYRTAKYIPVPSEGSPEARLTPLEQITSDDTKRGIDITETLRIQMEHQKKLHEQLESLRTMQLRIEEQGKALLMMIEKQNMGFGGPEQGEKTSAKTPENGSEESESPRPKRPRNEE
stoichiometry N: 4
